The values that follow come from patent publication US20240117038A1 (Ablynx, published 2024).

Broadly, the EC50 is the midpoint of the concentration-response curve. A low value points to an effect from little substance.

Changes are numbered by the printed parent chain.

The target in one assay is T1, human CX3CR1 T280M (human, UniProt P49238 1-355).
T1 construct: Transiently transfected in HEK293T cells (pcDNA3.1); also called huCX3CR1 variant T280M (Rs3732378)
T1 sequence: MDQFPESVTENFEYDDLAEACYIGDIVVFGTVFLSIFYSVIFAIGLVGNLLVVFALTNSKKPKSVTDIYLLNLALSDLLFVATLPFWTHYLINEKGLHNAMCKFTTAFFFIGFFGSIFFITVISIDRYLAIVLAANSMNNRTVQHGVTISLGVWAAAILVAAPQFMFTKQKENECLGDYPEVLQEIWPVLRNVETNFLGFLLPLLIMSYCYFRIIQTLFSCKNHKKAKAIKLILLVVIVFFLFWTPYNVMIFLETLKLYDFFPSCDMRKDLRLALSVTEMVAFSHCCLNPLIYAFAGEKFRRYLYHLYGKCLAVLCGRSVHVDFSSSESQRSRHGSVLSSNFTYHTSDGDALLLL
Kind of assay: flow cytometry, AF-647 labelled soluble CX3CL1 on transiently transfected HEK293T cells, human CX3CR1 T280M.

The next assay addresses T2, human CX3CR1 V249I/T280M (human, UniProt P49238 1-355).
T2 construct: Transiently transfected in HEK293T cells (pcDNA3.1); also called huCX3CR1 variant V249I and T280M
T2 chain: T1 sequence with V249I
Put plainly: flow cytometry, AF-647 labelled soluble CX3CL1 on transiently transfected HEK293T cells, human CX3CR1 V249I/T280M.

In the next assay the target is T3, human CX3CR1 V249I (human, UniProt P49238 1-355).
T3 construct: Transiently transfected in HEK293T cells (pcDNA3.1); also called huCX3CR1 variant V249I (Rs3732379); printed V2491 in the text
T3 sequence: T1 sequence with V249I, M280T
Kind of assay: flow cytometry, AF-647 labelled soluble CX3CL1 on transiently transfected HEK293T cells, human CX3CR1 V249I. On the technique in general: A flow cytometer gives signals particle by particle.

Assay [1] addresses T4, human CX3CR1 (human, UniProt P49238 1-355).
T4 sequence: T1 sequence with M280T
Kind of assay: cell-based or functional assay.

The next assay deals with T5, mouse CX3CR1 (mouse, UniProt Q9Z0D9 1-354).
T5 sequence (looked up): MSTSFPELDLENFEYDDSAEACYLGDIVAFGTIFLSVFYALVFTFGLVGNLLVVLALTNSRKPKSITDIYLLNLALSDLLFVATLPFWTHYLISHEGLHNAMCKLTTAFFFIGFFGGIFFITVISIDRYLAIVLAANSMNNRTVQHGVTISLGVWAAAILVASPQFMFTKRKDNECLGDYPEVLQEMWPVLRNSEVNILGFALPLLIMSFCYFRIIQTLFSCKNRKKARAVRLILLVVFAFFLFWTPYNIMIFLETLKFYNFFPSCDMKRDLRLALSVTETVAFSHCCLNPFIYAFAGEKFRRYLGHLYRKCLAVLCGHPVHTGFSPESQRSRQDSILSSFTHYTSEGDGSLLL
Put plainly: cell-based or functional assay.

Assay [2] concerns the target T4, human CX3CR1. Kind of assay: flow cytometry, AF-647 labelled soluble CX3CL1 on transiently transfected HEK293T cells, human CX3CR1 WT.

B1: human CX3CL1/Fraktalkine (ligand, UniProt P78423 25-339, looked up)
chain: QHHGVTKCNITCSKMTSKIPVALLIHYQQNQASCGKRAIILETRQHRLFCADPKEQWVKDAMQHLDRQAAALTRNGGTFEKQIGEVKPRTTPAAGGMDESVVLEPEATGESSSLEPTPSSQEAQRALGTSPELPTGVTGSSGTRLPPTPKAQDGGPVGTELFRVPPVSTAATWQSSAPHQPGPSLWAEAKTSEAPSTQDPSTQASTASSPAPEENAPSEGQRVWGQGQSPRPENSLEREEMGPVPAHTDAFQDWGPGSMAHVSVVPVSSEGTPSREPVASGSWTPKAEEPIHATMDPQRLGVLITPVPDAQAATR
modifications: labelled with AF647 (in house) in the binding and competition assays; unlabelled in the chemotaxis and pERK assays
notes: Bought protein; also called huCX3CL1; huCX3CL1-AF647
In the case of B1, the EC50 is 19 nM with human CX3CR1 T280M, 4.2 nM in the assay with human CX3CR1 V249I/T280M, 2.1 nM with human CX3CR1 V249I and 3.3 nM in the assay with human CX3CR1 [2]. Besides, the “EC50, ERK phosphorylation in CHO K1 huCX3CR1 cells” value in the assay with human CX3CR1 [1] worked out at 2 nM. Besides, in the assay with mouse CX3CR1, the “EC50, ERK phosphorylation in CHO K1 mCX3CR1 cells” value was 2.5 nM.
